B1: Calcium-dependent protein kinase 11 (Arabidopsis thaliana (Mouse-ear cress)), Q39016 (parent)
chain: METKPNPRRPSNTVLPYQTPRLRDHYLLGKKLGQGQFGTTYLCTEKSTSANYACKSIPKRKLVCREDYEDVWREIQIMHHLSEHPNVVRIKGTYEDSVFVHIVMEVCEGGELFDRIVSKGHFSEREAVKLIKTILGVVEACHSLGVMHRDLKPENFLFDSPKDDAKLKATDFGLSVFYKPGQYLYDVVGSPYYVAPEVLKKCYGPEIDVWSAGVILYILLSGVPPFWAETESGIFRQILQGKLDFKSDPWPTISEAAKDLIYKMLERSPKKRISAHEALCHPWIVDEQAAPDKPLDPAVLSRLKQFSQMNKIKKMALRVIAERLSEEEIGGLKELFKMIDTDNSGTITFEELKAGLKRVGSELMESEIKSLMDAADIDNSGTIDYGEFLAATLHMNKMEREENLVAAFSYFDKDGSGYITIDELQSACTEFGLCDTPLDDMIKEIDLDNDGKIDFSEFTAMMRKGDGVGRSRTMMKNLNFNIADAFGVDGEKSDD
partner: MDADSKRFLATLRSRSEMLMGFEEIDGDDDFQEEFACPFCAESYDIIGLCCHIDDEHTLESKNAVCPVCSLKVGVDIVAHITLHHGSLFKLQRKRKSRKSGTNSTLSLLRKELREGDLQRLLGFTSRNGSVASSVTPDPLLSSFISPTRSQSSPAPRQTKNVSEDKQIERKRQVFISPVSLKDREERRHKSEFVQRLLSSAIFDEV
B2: Protein …ON-INDUCED 19 (Arabidopsis thaliana (Mouse-ear cress)), Q39083 (parent)
chain: B1 partner
partner: B1 chain

Variants of: B1
Details: with di191_arath DI19-1, Q39083

Row | effect of a mutation on the interaction | Variant
1 | increasing interaction | D150A;F306A
2 | increasing interaction | D171A;F306A

Variants of: B1
Details: with di191_arath DI19-1, Q39083
Remark: another data set of the same source

Row | effect of a mutation on the interaction | Variant
3 | increasing interaction | D150A

Variants of: B1
Details: with di191_arath DI19-1, Q39083
Remark: another data set of the same source

Row | effect of a mutation on the interaction | Variant
4 | disrupting interaction | D150A

Variants of: B1
Details: with di191_arath DI19-1, Q39083
Remark: another data set of the same source

Row | effect of a mutation on the interaction | Variant
5 | increasing interaction | F306A

Variants of: B2
Details: with cdpkb_arath CPK11, Q39016

Row | effect of a mutation on the interaction | Variant
6 | decreasing interaction | S107A
7 | decreasing interaction | T105A

— IntAct's records for PubMed 16438971
